Measured values taken from patent US20230331827A1, “POTASSIUM CHANNEL INHIBITORS” (priority 2017, published 2023).

Tests used:
[1] = biological target: T1, huKv1.3 (Homo sapiens, UniProt P22001); assay: QPatch automated whole-cell patch-clamp, CHO cells stably expressing huKv1.3 (Example 8); type: cell-based
T1 construct: host or cells: CHO
Description: (§1) Knottin Kv 1.3 and ASIC1a blockers expressed in the KnotBody format (see examples 6 and 7) were tested for their ability to inhibit the function of the ion channel targets. The effect of these KnotBodies on cells expressing the human Kv 1.3 (huKv1.3) or human ASIC1a channels was assessed using QPatch automated whole-cell patch-clamp electrophysiology (Sophion).
For the testing of Kv1.3, CHO cells stably expressing huKv1.3 (Charles River Lab) were analysed using the QPatch electrophysiology assay in the presence or absence of the KnotBody fusions or the antibody isotypes (negative) controls. Internal and external physiological solutions were freshly prepared prior to the assay. The extracellular solution contained 145 mM NaCl, 4 mM KCl, 2 mM CaCl2, 1 mM MgCl2, 10 mM HEPES and 10 mM glucose; the pH was adjusted to 7.4 with NaOH; the osmolarity was ~ 305 mOsm/L. The intracellular solution contained: KF (120 mM), KCl (20 mM), HEPES (10 mM) and EGTA (10 mM); the pH was adjusted to 7.2 with KOH; osmolarity was ~ 320 mOsm/L.
A series of depolarising voltage (channel activating) pulses were used to monitor the channel currents upon adding control (extracellular solution) to define a control baseline of current activity. To these measured control currents ascending concentrations of KnotBodies or parental antibody isotypes (control molecules) were applied to the external bathing solution (2.2 µM - 0.5 nM, diluted in the extracellular solution). KnotBodies KB_A12 and KB_A07 (EETI-II fusions) were used as isotype controls for the testing. From a holding voltage of -80 mV a depolarising, activating voltage pulses of +30 or +80 mV were applied for 300 ms, every 5 or 10 seconds. The elicited, maximum outward current values measured during the activating step for each solution exchange period were averaged (n = 3 - 8 for each concentration applied) and plotted as concentration-response curves. KB_A07_ShK, KB_A12_ShK and KB_A07_Kaliotoxin (KTX) fusion proteins all inhibited the huKv1.3 currents in a concentration dependent manner with IC50S of approximately 20 nM, 40 nM and 900 nM respectively.

[2] = biological target: T2, huASIC1a (Homo sapiens, UniProt P78348); assay: QPatch electrophysiology, HEK293 cells stably expressing huASIC1a; type: cell-based; details: ASIC1a current at pH 6.0 after 15-20 minutes KnotBody pre-incubation, 2.3-6.6 µM
T2 construct: host or cells: HEK293
T2 sequence (P78348 1-528): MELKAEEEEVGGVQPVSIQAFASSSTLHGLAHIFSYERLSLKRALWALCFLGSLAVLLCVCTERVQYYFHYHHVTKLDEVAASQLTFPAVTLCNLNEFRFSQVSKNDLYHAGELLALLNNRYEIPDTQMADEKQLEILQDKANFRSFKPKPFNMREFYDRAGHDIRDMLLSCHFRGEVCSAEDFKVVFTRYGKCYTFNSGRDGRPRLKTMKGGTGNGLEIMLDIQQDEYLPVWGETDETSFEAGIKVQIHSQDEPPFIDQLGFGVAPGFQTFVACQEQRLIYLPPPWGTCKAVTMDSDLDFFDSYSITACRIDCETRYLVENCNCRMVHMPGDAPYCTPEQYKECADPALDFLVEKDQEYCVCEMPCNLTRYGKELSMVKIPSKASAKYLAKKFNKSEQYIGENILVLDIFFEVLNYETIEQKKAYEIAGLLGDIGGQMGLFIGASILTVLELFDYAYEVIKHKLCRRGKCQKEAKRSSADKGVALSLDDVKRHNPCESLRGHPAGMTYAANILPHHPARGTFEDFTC
Description: as §1
To functionally assess the ASIC1a KnotBodies, HEK293 cells stably expressing huASIC1a (Sophion) were analysed using a QPatch electrophysiology assay in the presence or absence of the KnotBody fusions (using KB_A12 as a recipient and replacing the original EETI-II donor as shown in Table 8). The “parental” KB_A12 with the EETI-II donor was used as a negative control. Internal and external physiological solutions were freshly prepared prior to the assay. The extracellular solution contained 145 mM NaCl, 4 mM KCl, 2 mM CaCl2, 1 mM MgCl2, 10 mM HEPES and 10 mM glucose; the pH was adjusted to 7.4 with NaOH (for control, resting-state pH) or 6.0 with MES (for acidic, activating-state pH); the osmolarity was ~ 305 mOsm/L. The intracellular solution contained: CsF (140 mM), HEPES (10 mM), NaCl (10 mM) and EGTA/CsOH (1 mM/5 mM); the pH was adjusted to 7.3 with CsOH; osmolarity was ~ 320 mOsm/L.
Throughout ASIC 1a recordings the recording cell membrane voltage was clamped at -60 mV. ASIC1a baseline control currents were elicited by applying external solution at activating pH 6.0 for 3000 ms. This activating pH application was repeated three further times, giving four baseline control ASIC1a currents. The recording cells were then pre-incubated with KnotBody diluted in external solution at pH 7.4 for 15-20 minutes. Following this KnotBody pre-incubation the same concentration of KnotBody in external solution at activating pH 6.0 was applied to the cell recording.
At the end of each KnotBody incubation and subsequent ASIC1a current activation, a full blocking concentration (300 nM) of the ASIC1a knottin inhibitor PcTx1 (positive control) was perfused onto the cell recording and a final activating pH 6.0 external solution was applied. The percentage remaining signal between activating pH 6.0 baseline (i.e. pre-KnotBody) and post-KnotBody incubation was determined.

[3] = Kv1.3 channels, IgG KnotBody, Table 11A
[4] = huKv1.3 currents, text of Example 8, approximately

T1 sequence (P22001 whole entry): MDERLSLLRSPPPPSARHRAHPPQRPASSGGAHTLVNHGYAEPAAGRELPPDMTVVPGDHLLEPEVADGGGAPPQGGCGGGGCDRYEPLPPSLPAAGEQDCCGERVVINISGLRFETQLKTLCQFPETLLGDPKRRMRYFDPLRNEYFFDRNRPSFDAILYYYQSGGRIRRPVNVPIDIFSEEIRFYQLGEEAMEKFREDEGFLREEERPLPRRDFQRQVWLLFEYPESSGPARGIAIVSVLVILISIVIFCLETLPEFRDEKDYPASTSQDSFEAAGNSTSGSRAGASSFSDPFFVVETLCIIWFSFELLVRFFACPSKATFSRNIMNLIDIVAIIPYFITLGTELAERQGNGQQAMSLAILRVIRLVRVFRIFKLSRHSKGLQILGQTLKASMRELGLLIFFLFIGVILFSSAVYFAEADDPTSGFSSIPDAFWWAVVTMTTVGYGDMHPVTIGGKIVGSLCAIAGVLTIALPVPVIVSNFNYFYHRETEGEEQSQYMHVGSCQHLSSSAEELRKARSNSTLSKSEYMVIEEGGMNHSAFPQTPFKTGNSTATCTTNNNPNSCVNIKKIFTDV

B1: KB_A07_ShK: ShK toxin in VL CDR2 of KB_A07, IgG1 (antibody, V domains shown)
VH: EVQLVESGGGLVRPGGSLRLSCAASGFTFSSYAMSWVRQAPGKGLEWVSAISGSGGSTYYADSVKGRFTISRDNTKNSLYLQMTSLRADDTAFYYCVKDFGPGYGTGWFDYWGPGTLVTVSS
VL: DIQMTQSPSSLSASVGDRVTITCRASQSISSYLNWYQQKPGKAPKLLIYAAGVRSCIDTIPKSRCTAFQCKHSMKYRLSFCRKTCGTCSRSGVPSRFSGSGSGTDFTLTISSLQPEDFATYYCQQGASPPYTFGQGTKVEIKR
With B1 the IC50 [1, 3] was 40 nM and the IC50 [1, 4] was ~20 nM.

B2: KB_A12_Mba-1: Mambalgin-1 in VL CDR2 of KB_A12 (antibody)
VH: EVQLVESGGGLVRPGGSLRLSCAASGFTFSSYAMSWVRQAPGKGLEWVSAISGSGGSTYYADSVKGRFTISRDNTKNSLYLQMTSLRADDTAFYYCVKDFGPGYGTGWFDYWGPGTLVTVSS
VL: QSVLTQPPSVSEAPRQRVTITCSGSSSNIGNNAVNWYQQLPGKAPKLLIYAAGRLKCYQHGKVVTCHRDMKFCYHNTGMPFRNLKLILQGCSSSCSETENNKCCSTDRCNKANSGVSDRFSAAKSGTSASLAINGLRSEDEADYYCAAWDDSLNGYVFGTGTKLTVLGQP
With B2 the “% current remaining” value [2] was “same level of current as the KB_A12 negative control” and the “% current remaining” value ([2]; listed as KB A12 Mba-1) was 69.2%.

B3: KB_A12_PcTx1: PcTx1 in VL CDR2 of KB_A12 (antibody)
VH: EVQLVESGGGLVRPGGSLRLSCAASGFTFSSYAMSWVRQAPGKGLEWVSAISGSGGSTYYADSVKGRFTISRDNTKNSLYLQMTSLRADDTAFYYCVKDFGPGYGTGWFDYWGPGTLVTVSS
VL: QSVLTQPPSVSEAPRQRVTITCSGSSSNIGNNAVNWYQQLPGKAPKLLIYAAGREDCIPKWKGCVNRHGDCCEGLECWKRRRSFEVCVPKTPKTANSGVSDRFSAAKSGTSASLAINGLRSEDEADYYCAAWDDSLNGYVFGTGTKLTVLG
In the case of B3, the “% current remaining” value [2] is reported as 4.8%.

B4: KB_A07_KTX: kaliotoxin in VL CDR2 of KB_A07, IgG1 (antibody, V domains shown)
VH: EVQLVESGGGLVRPGGSLRLSCAASGFTFSSYAMSWVRQAPGKGLEWVSAISGSGGSTYYADSVKGRFTISRDNTKNSLYLQMTSLRADDTAFYYCVKDFGPGYGTGWFDYWGPGTLVTVSS
VL: DIQMTQSPSSLSASVGDRVTITCRASQSISSYLNWYQQKPGKAPKLLIYAAGVGVEINVKCSGSPQCLKPCKDAGMRFGKCMNRKCHCTPKSRSGVPSRFSGSGSGTDFTLTISSLQPEDFATYYCQQGASPPYTFGQGTKVEIKR
Work on B4 yielded an IC50 [1, 3] of 900 nM and an IC50 [1, 4] of ~900 nM.

B5: KB_A07_PcTx1: PcTx1 in VL CDR2 of KB_A07 (antibody, V domains shown)
VH: EVQLVESGGGLVRPGGSLRLSCAASGFTFSSYAMSWVRQAPGKGLEWVSAISGSGGSTYYADSVKGRFTISRDNTKNSLYLQMTSLRADDTAFYYCVKDFGPGYGTGWFDYWGPGTLVTVSS
VL: DIQMTQSPSSLSASVGDRVTITCRASQSISSYLNWYQQKPGKAPKLLIYAAGVEDCIPKWKGCVNRHGDCCEGLECWKRRRSFEVCVPKTPKTSRSGVPSRFSGSGSGTDFTLTISSLQPEDFATYYCQQGASPPYTFGQGTKVEIKR
For B5, the “% current remaining” value [2] was 4.8% and the “% current remaining” value ([2]; listed as KB A07 PcTx1) was 6.2%.

B6: KB_A12_Mba-2: Mambalgin-2 in VL CDR2 of KB_A12 (antibody)
VH: EVQLVESGGGLVRPGGSLRLSCAASGFTFSSYAMSWVRQAPGKGLEWVSAISGSGGSTYYADSVKGRFTISRDNTKNSLYLQMTSLRADDTAFYYCVKDFGPGYGTGWFDYWGPGTLVTVSS
VL: QSVLTQPPSVSEAPRQRVTITCSGSSSNIGNNAVNWYQQLPGKAPKLLIYAAGRLKCFQHGKVVTCHRDMKFCYHNTGMPFRNLKLILQGCSSSCSETENNKCCSTDRCNKANSGVSDRFSAAKSGTSASLAINGLRSEDEADYYCAAWDDSLNGYVFGTGTKLTVLGQP
B6 was tested, and the “% current remaining” value [2] was “same level of current as the KB_A12 negative control” and the “% current remaining” value ([2]; listed as KB A12 Mba-2) was 72.4%.
